Reference: patent US20250011363A1, “OPTIMIZED SHORTENED PEPTIDE THAT BINDS TO ACETYLCHOLINE RECEPTOR, AND USE THEREOF” (SKINMED CO., LTD., priority 2021, published 2025)

The binders below were run against acetylcholine receptor (assay: SPR, peptide at 10 uM).

Binder	Binding affinity
KIDFRR [6mer-2-1149]	21 RU
KACVKK [6mer-2-1179]	34 RU
KMKKKR [6mer-2-1136]	36 RU
REWGRK [6mer-2-1146]	32 RU
KKAMKR [6mer-2-1142]	30 RU
RCAPKR [6mer-2-1167]	27 RU
RAANRR [6mer-2-1180]	34 RU
RCEPRK [6mer-2-1174]	21 RU
KNCMRK [6mer-2-1128]	36 RU
RIKNRR [6mer-2-1145]	23 RU
RHNDKR [6mer-2-1182]	30 RU
KICERK [6mer-2-1169]	21 RU
KMNARR [6mer-2-1156]	35 RU
KMPARR [6mer-2-1171]	40 RU
RYNHKR [6mer-2-1164]	33 RU
RANWKR [6mer-2-1135]	29 RU
RITGKR [6mer-2-1129]	42 RU
RYPVRK [6mer-2-1151]	43 RU
RHSFKK [6mer-2-1161]	27 RU

Binder	Binding affinity
KFTIRR [6mer-2-1170]	25 RU
KMKPKK [6mer-2-1168]	41 RU
KCSIKK [6mer-2-1166]	26 RU
KACWKR [6mer-2-1181]	32 RU
RNTDRK [6mer-2-1157]	37 RU
KMSERR [6mer-2-1162]	34 RU
RNWAKK [6mer-2-1152]	37 RU
RYTEKK [6mer-2-1176]	43 RU
KCCNKK [6mer-2-1173]	38 RU
RENNRK [6mer-2-1183]	35 RU
KHKPKR [6mer-2-1153]	27 RU
RPWERR [6mer-2-1132]	32 RU
RHSFRK [6mer-2-1130]	29 RU
KCHFKK [6mer-2-1163]	37 RU
RYSKRR [6mer-2-1175]	34 RU
KCTGKR [6mer-2-1141]	32 RU
RDNIRK [6mer-2-1158]	37 RU
KNCERR [6mer-2-1172]	36 RU
RITVKK [6mer-2-1160]	23 RU

Binder	Binding affinity
KYENRK [6mer-2-1134]	30 RU
KACIKK [6mer-2-1143]	42 RU
KEKGKR [6mer-2-1148]	34 RU
KMKMKK [6mer-2-1133]	22 RU
KAHFKK [6mer-2-1138]	42 RU
RTDFKR [6mer-2-1137]	22 RU
RIKAKK [6mer-2-1165]	30 RU
RYEARR [6mer-2-1154]	30 RU
RFEDRK [6mer-2-1144]	39 RU
KFMKKK [6mer-2-1147]	35 RU
RTNAKR [6mer-2-1131]	26 RU
KDMGKR [6mer-2-1159]	40 RU
KAKAKK [6mer-2-1139]	39 RU
RNTNRK [6mer-2-1155]	25 RU
KFWVRR [6mer-2-1184]	22 RU
RASEKR [6mer-2-1177]	41 RU
KTDVKK [6mer-2-1150]	42 RU
KMNKKR [6mer-2-1140]	29 RU
KTTVRK [6mer-2-1178]	30 RU
